From paper PMC6399350, “Heterologous calcium-dependent inactivation of Orai1 by neighboring TRPV1 channels modulates cell migration and wound healing” (Communications Biology, 2019)
No end group written: not given here.

T1: Orai1-COOH-DsRed (carboxyl terminus of Orai1 fused to the red fluorescent protein) (human)
T1 construct: also called Orai1-dsRED-COOH peptide; source: spotted on the microarray slide; not shown: DsRed, C-terminal, kept
T1 chain: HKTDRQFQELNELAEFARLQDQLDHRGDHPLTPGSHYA

T2: ANK1 domain printed on the microarray slide as bait (rat)
T2 construct: ankyrin domain 1 of rat TRPV1, 110-152; The methods say 'the ANK1 domain (see above)', which points to the ANK1-GFP fusion; Kept apart from m6 for that reason; source: purified peptide, printed on glass microarray slides coated with poly-D-lysine
T2 chain: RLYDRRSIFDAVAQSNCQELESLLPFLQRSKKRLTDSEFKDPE


How the values were obtained:
[1] = target: T1, Orai1-COOH-DsRed (carboxyl terminus of …); experiment: peptide or protein array; TIRFM microarray; Orai1-COOH-DsRed printed on poly-D-lysine coated glass as bait, ANK domains fused to GFP in solution at 1 uM, 3 min incubation, wash with saline, GFP fluorescence read; conditions: both partners purified
[2] = target: T2, ANK1 domain printed on the microarray …; experiment: peptide or protein array; TIRFM microarray; ANK1 domain printed on poly-D-lysine coated glass as bait, Orai1 terminus fused to GFP in solution, GFP fluorescence read; conditions: both partners purified

binding result [1] | binding result [2] | Binder
binds |  | KGQTALHIAIERRNMTLVTLLVENGADVQAAANGDFFKKTKGRPGFY (domain or fragment, ankyrin domain 3 of rat TRPV1, 200-246; source: HEK293, transfected, in lysate (co-IP); HEK293 in suspension, sonicated, immunoprecipitated with anti-GFP antibody (microarray); not shown: enhanced GFP, C-terminal, kept) [ANK3-GFP (third ankyrin domain of rat TRPV1 fused to GFP)]
binds |  | TGKTCLLKAMLNLHNGQNDTIALLLDVARKTDSLKQFVNASYTDSYY (domain or fragment, ankyrin domain 2 of rat TRPV1, 153-199; source: HEK293, transfected, in lysate (co-IP); HEK293 in suspension, sonicated, immunoprecipitated with anti-GFP antibody (microarray); not shown: enhanced GFP, C-terminal, kept) [ANK2-GFP (second ankyrin domain of rat TRPV1 fused to GFP)]
 | binds | HKTDRQFQELNELAEFARLQDQLDHRGDHPLTPGSHYA (domain or fragment, human, also: fused to GFP, source: HEK293 in suspension, sonicated, immunoprecipitated with anti-GFP antibody (procedure as for the ANK-GFP fusions); not shown: GFP, C-terminal, kept) [Orai1-COOH-GFP (carboxyl terminus of Orai1 fused to GFP)]
binds |  | FGELPLSLAACTNQLAIVKFLLQNSWQPADISARDS (domain or fragment, ankyrin domain 4 of rat TRPV1, 247-282; source: HEK293 in suspension, sonicated, immunoprecipitated with anti-GFP antibody (microarray); not shown: enhanced GFP, C-terminal, kept) [ANK4-GFP (fourth ankyrin domain of rat TRPV1 fused to GFP)]
binds |  | RLYDRRSIFDAVAQSNCQELESLLPFLQRSKKRLTDSEFKDPE (domain or fragment, ankyrin domain 1 of rat TRPV1, 110-152; source: HEK293, transfected, in lysate (co-IP); HEK293 in suspension, sonicated, immunoprecipitated with anti-GFP antibody (microarray); not shown: enhanced GFP, C-terminal, kept) [ANK1-GFP (first ankyrin domain of rat TRPV1 fused to GFP)]
